A word on the Km: it is the concentration of substrate that gives half-maximal velocity.

Substrate in the data set: Nc1ncnc2c1ncn2[C@@H]1O[C@H](COP(=O)(O)OP(=O)(O)OP(=O)(O)O)[C@@H](O)[C@H]1O
Briefly: colorimetric phosphate-release ATPase assay. The class given is biochemical, Escherichia coli. The note with it: LolCDE in POPG nanodiscs, MgCl2, 25 mM Tris pH 8, 150 mM NaCl, 37 °C, basal activity, no lipoprotein added.

B1: LolCDE (Escherichia coli K-12) (protein)
chain: MNKILLQCDNLCKRYQEGSVQTDVLHNVSFSVGEGEMMAIVGSSGSGKSTLLHLLGGLDTPTSGDVIFNGQPMSKLSSAAKAELRNQKLGFIYQFHHLLPDFTALENVAMPLLIGKKKPAEINSRALEMLKAVGLDHRANHRPSELSGGERQRVAIARALVNNPRLVLADEPTGNLDARNADSIFQLLGELNRLQGTAFLVVTHDLQLAKRMSRQLEMRDGRLTAELSLMGAE
notes: co-expressed in E. coli BL21(DE3); purified in DDM, reconstituted into MSP1D1/POPG nanodiscs; co-purifies with lipoprotein; with Lipoprotein-releasing system transmembrane protein LolC; Lipoprotein-releasing system transmembrane protein LolE
Consider B1, for which the Km is 190 ± 50 µM.

The values above are taken from publication PMC8333309, “Mechanism of LolCDE as a molecular extruder of bacterial triacylated lipoproteins” (Nature Communications, 2021).
